The assay has as its target T1, WDR43 (human, UniProt Q15061 1-677, limits assumed).
T1 construct: Called a core transcriptional assembly factor at TSS; Endogenous protein from lysate
T1 sequence (looked up): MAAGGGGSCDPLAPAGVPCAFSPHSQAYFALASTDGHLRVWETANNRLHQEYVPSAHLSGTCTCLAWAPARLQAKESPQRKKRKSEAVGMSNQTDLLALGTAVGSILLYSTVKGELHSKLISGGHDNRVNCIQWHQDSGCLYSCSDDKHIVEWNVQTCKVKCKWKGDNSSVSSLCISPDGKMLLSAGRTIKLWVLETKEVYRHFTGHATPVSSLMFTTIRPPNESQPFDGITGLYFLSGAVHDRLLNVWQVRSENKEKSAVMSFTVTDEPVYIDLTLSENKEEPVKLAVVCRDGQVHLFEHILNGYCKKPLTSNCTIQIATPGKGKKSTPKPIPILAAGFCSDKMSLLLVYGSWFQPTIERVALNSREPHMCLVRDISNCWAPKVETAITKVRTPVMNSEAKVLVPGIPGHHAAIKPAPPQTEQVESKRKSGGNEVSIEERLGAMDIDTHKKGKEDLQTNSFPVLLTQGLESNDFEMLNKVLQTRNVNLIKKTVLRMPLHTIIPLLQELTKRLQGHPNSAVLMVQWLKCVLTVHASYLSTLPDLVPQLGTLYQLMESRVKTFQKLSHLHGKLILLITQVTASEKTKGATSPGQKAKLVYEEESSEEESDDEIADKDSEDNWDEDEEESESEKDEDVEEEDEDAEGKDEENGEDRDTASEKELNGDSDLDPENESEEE
In words: co-immunoprecipitation of ectopically expressed HA-tagged RIOK2 with monoclonal anti-HA antibody beads, then LC-MS/MS; spectral counts normalised to the immunoprecipitated HA-RIOK2, fold change with respect to WT. As to the method:
For collection of cellular lysates, lysis was similarly performed as described above. 5% of the supernatant was saved as Input, and pre-washed monoclonal anti-HA antibody tagged-agarose beads slurry (A2095, Sigma Aldrich) was added to the rest of the supernatant and incubated at 4° C. on a rocker O/N. The beads were washed with RIPA lysis buffer, resuspended in 2× laemmli buffer, boiled at 95° C. for 10 minutes, and immediately loaded for SDS-PAGE separation. Electrophoresis was performed until the proteins ran 1/6th of the entire gel size. The gel was Coomassie stained for 1 h at 25° C., de-stained at 4° C. O/N, and were cut with sterile blades, washed with MS-grade acetonitrile solution and submitted for Mass Spectrometry analysis at BIDMC Mass Spectrometry Core. […]
Gel separated protein samples were reduced with 55 mM DTT, alkylated with 10 mM iodoacetamide (Sigma-Aldrich), and digested O/N with TPCK modified trypsin/LysC (Promega) at pH=8.3. […] 3 μL of the digested protein samples were analyzed in positive ion mode via microcapillary tandem mass spectrometry (LC-MS/MS) using a high resolution hybrid QExactive HF Orbitrap Mass Spectrometer (Thermo Fisher Scientific) via HCD with data-dependent analysis (DDA) with 1 MS1 scan followed by 8 MS2 scans per cycle (Top 8). […]

Here are results for one molecule from patent US20250381241A1 (Dana-Farber, published 2025).

B1: ΔTAD2 (enzyme, not shown: small tags and cut ends)
chain: MGKVNVAKLRYMSRDDFRVLTAVEMGMKNHEIVPGSLIASIASLKHGGCNKVLRELVKHKLIAWERTKTVQGYRLTRQVVESVGNQMGVGKESDIYIVANEEGQQFALKLHRLGRTSFRNLKNKRDYHKHRHNVSWLYLSRLSAMKEFAYMKALYERKFPVPKPIDYNRHAVVMELINGYPLCQIHHVEDPASVYDEAMELIVKLANHGLIHGDFNEFNLILDESDHITMIDFPQMVSTSHPNAEWYFDRDVKCIKDFFMKRFSYESELFPTFKDIRREDTLDVEVSASGYTKEMQADDELLHPLGPDDKNIETKEGSEFSFSDGEVAEKAEVYGSENESERNCLEESEGCYCRSSGDPEQIKEDSLSEESADARSFEMTEFNQALEEIKGQVVENNSVTEFSEEKNRTENYNRQDGQRVQGGVPAGSDEYEDECPHLIALSSLNREFRPFRDEENVGAMNQYRTRTLSITSSGSAVSCSTIPPELVKQKVKRQLTKQQKSAVRRRLQKGEANIFTKQRRENMQNIKSSLEAASFWGE
notes: The text defines it as N-terminal HA-tagged RIOK2 with amino acids 77-90 deleted; also called HA-ΔTAD2
For B1, the binding result was “no binding”.
